Test results reported in patent US20130142788A1 (published 2013).
Numbering of substitutions follows the chain as printed. Numbers in names are those of the source.

T1: recombinant mature dimeric myostatin (human and mouse (mature sequences 100% …, UniProt O08689 268-376))
T1 construct: also called GDF-8; mature myostatin
T1 sequence: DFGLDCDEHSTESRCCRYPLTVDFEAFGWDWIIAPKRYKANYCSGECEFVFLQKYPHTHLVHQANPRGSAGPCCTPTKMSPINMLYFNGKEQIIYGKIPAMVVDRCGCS

B1: H2L2-C91S_F100G_Y (antibody, IgG1)
heavy: not shown
light: DIQMTQSPSSLSASVGDRVTITCKASQDINSYLSWFQQKPGKAPKSLIYRANRLVDGVPSKFSGSGSGTDYTLTISSLQPEDFATYYCLQSDEFPLTFGQGTKLEIKRTVAAPSVFIFPPSDEQLKSGTASVVCLLNNFYPREAKVQWKVDNALQSGNSQESVTEQDSKDSTYSLSSTLTLSKADYEKHKVYACEVTHQGLSSPVTKSFNRGEC
notes: wild type IgG1 Fc
B2: H2L2-C91S_V102S (antibody, V domains shown)
VH: QVQLVQSGAEVKKPGASVKVSCKASGYSFTGYFMHWVRQAPGQGLEWMGNIYPYNGVSNYNQRFKARVTMTTDTSTSTAYMELRSLRSDDTAVYYCARRYYYGTGPADWYFDSWGQGTLVTVSS
VL: DIQMTQSPSSLSASVGDRVTITCKASQDINSYLSWFQQKPGKAPKSLIYRANRLVDGVPSKFSGSGSGTDYTLTISSLQPEDFATYYCLQSDEFPLTFGQGTKLEIKR
B3: H2L2-C91S_V102N (antibody, V domains shown)
VH: B2 VH with S113N
VL: B2 VL
B4: H2L2-C91S_G99D (antibody, V domains shown)
VH: B2 VH with G103D, S113V
VL: B2 VL
B5: H2L2-C91S_P100B_F (antibody, V domains shown)
VH: B2 VH with P106F, S113V
VL: B2 VL
B6: H9L5 (antibody, IgG1, V domains shown)
VH: B2 VH with V20I, M48I, G56S, R67K, V68A, M70L, T72V, T74K, F111Y, S113V
VL: B2 VL with S46T
notes: Humanised IgG1/kappa
B7: H2L2-C91S_Y96L (antibody, V domains shown)
VH: B2 VH with Y100L, S113V
VL: B2 VL
B8: H2L2-C91S_P100B_I (antibody, V domains shown)
VH: B2 VH with P106I, S113V
VL: B2 VL
B9: H2L2 C91S_G55S F100G_Y (antibody)
heavy: not shown
light: B1 light
notes: Fc not disabled
B10: H2L2-C91S_G100A_K (antibody, V domains shown)
VH: B2 VH with G105K, S113V
VL: B2 VL
B11: HoLo (antibody, V domains shown)
VH: B2 VH with S28T, S113V
VL: B2 VL with Y71F, S91C
notes: also called H0L0; copies: 2 + 2
B12: H2L2-C91S_W100E_F (antibody, V domains shown)
VH: B2 VH with W109F, S113V
VL: B2 VL
B13: H2L2-C91S_F100G_N (antibody, V domains shown)
VH: B2 VH with F111N, S113V
VL: B2 VL
B14: H2L2-C91S_G99S (antibody, V domains shown)
VH: B2 VH with G103S, S113V
VL: B2 VL
B15: H2L2 C91S_G55S_F100G_Y-Fc disabled (antibody)
heavy: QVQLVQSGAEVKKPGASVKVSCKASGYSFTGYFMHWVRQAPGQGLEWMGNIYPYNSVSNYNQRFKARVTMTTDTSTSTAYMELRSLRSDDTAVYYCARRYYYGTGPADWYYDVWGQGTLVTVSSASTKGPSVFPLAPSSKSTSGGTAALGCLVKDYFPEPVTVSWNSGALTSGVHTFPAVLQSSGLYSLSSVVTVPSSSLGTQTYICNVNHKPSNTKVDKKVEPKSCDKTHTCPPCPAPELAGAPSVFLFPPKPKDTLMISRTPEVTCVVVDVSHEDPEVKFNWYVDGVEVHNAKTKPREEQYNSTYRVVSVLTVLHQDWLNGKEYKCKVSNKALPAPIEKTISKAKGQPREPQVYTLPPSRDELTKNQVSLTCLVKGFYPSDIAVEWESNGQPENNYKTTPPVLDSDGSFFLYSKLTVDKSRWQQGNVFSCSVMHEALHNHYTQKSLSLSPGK
light: B1 light
notes: Fc disabled (L235A, G237A, EU); Light chain L2-C91S by the name; not restated for the disabled form

Molecular target: T1, recombinant mature dimeric myostatin
Assay: Kinexa solution phase affinity
Protocol: Kinexa (Sapidyne Instruments) solution phase affinity was used to determine the overall affinity for a range of anti-myostatin molecules. Myostatin beads were prepared either by adsorption (polymethylmethacrylate beads-PMMA) or amine coupling (NHS-activated sepharose beads). The range of anti-myostatin molecules studied necessitated the generation of beads coated with different concentrations of myostatin. For the solution phase portion of the assay, a fixed concentration of antibody was incubated with a broad range of myostatin concentrations and allowed to reach equilibrium by incubation at r.t. for at least 2 h before analysis proceeded. The myostatin beads were then used to determine the amount of free antibody present in the solution phase samples, by means of the free antibody binding to the myostatin bead matrix then detected using an appropriate secondary antibody (either anti-human or anti-mouse depending on the construct being tested) labelled with a fluorescent dye. The binding curves where fitted using the Kinexa Pro analysis software inherent to the machine. Multiple runs using varying starting concentrations of antibody were then compiled and analysed using the n-curve analysis software to give a more accurate determination of affinity.

Row | Binder | Kd
1 | B1 | 3.68 nM

Molecular target: T1, recombinant mature dimeric myostatin
Assay: myostatin competition ELISA, polyclonal Ab capture of myostatin, competitor 10B3
Protocol: (§1) A 96-well ELISA plate was coated at 4° C. overnight with 2.5 μg/ml polyclonal Antibody to Myostatin (R&D Systems AF788). This plate was then washed 3-times in wash buffer (PBS, 0.1% Tween-20) and blocked for 1 hour at room temperature with block solution (PBS, 0.1% Tween-20+1% bovine serum albumin [BSA]). Then, myostatin was added at 1 μg/ml in block buffer during 1 hour followed by 3-times in wash buffer. Antibodies were then titrated out to a suitable concentration range (approximately 10 to 0.01 μg/ml), added to the plate and incubated for 1 hour at room temperature. The plate was then washed 3-times in wash buffer. An anti-human kappa light chain HRP-conjugated antibody (Sigma A7164, used according to the manufacturer's instructions) was used to detect binding of humanized or chimeric antibodies, such as 10B3 chimera (HcLc) or H0L0. The plate was then washed 3-times in wash buffer and developed with an OPD substrate (according to the manufacturer's instructions) and read at 490 nm on a plate reader.
The protocol set out in 5.7 was used with the addition of 10B3 (final concentration of […]) to each well and mixed with the antibodies titrated out to a suitable concentration range (approximately 10 to 0.01 μg/ml). An anti-mouse HRP-conjugated antibody (DAKO P0260, used according to the manufacturer's instructions) was used to detect binding of the 10B3 antibody.

Row | Binder | rank among the five most potent, top (1) to bottom (5)
2 | B1 | 4 rank
3 | B2 | 3 rank
4 | B3 | 2 rank
5 | B4 | 5 rank
6 | B5 | 1 rank

Molecular target: T1, recombinant mature dimeric myostatin
Assay: ActRIIb neutralisation ELISA: inhibition of 2 nM biotinylated myostatin binding to coated ActRIIb
Protocol: Recombinant soluble ActRIIb (R&D Systems 339-RBB) was coated in wells of an ELISA plate at 1 μg/ml in carbonate buffer overnight at 4° C. Plates were blocked with PBS containing 0.1% tween 20 and 0.1% BSA and washed following standard ELISA protocols. In parallel, 2 nM biotinylated myostatin (in-house reagent, described above) was pre-incubated with a dilution series of the antibodies of Tables 21 and 22 for 30 minutes at 37° C. The biotinylated myostatin:antibody reactions were then added (50 μl/well) to the ActRIIb coated plate for 1 hour at 37° C. Standard wash procedures were followed prior to addition of 50 μl per well of a 1:200 diluted streptavidin-HRP conjugate (R&D Systems. #890803) followed by a further 37° C. incubation for 1 hour. Plates were again washed and assayed at absorbance 490 nm following substrate (R&D Systems, #DY999) and acid stop solution treatment.

Row | Binder | IC50
7 | B1 | 1.25 nM
8 | B6 | 0.14 nM

Molecular target: T1, recombinant mature dimeric myostatin
Assay: cell-based or functional assay

Row | Binder | IC50, myostatin responsive reporter gene neutralisation assay (A204)
9 | B1 | 23 nM
10 | B6 | 4 nM

Molecular target: T1, recombinant mature dimeric myostatin
Assay: myostatin competition ELISA, biotinylated myostatin on streptavidin, competitor 10B3
Protocol: (§2) The protocol set out in 5.7 was used but the plates were initially coated at 4° C. overnight with 5 μg/ml of streptavidin. Biotinylated myostatin was added at 0.3 μg/ml block buffer during 1 hour followed by 3-times in wash buffer. 10B3 (final concentration of 0.2 μg/ml) was added into each well and mixed with antibodies titrated out to a suitable concentration range (approximately 10 to 0.01 μg/ml). An anti-mouse HRP-conjugated antibody (DAKO P0260, used according to the manufacturer's instructions) was used to detect binding of the 10B3 antibody.

Row | Binder | rank among the five most potent, top (1) to bottom (5)
11 | B1 | 2 rank
12 | B7 | 5 rank
13 | B2 | 1 rank
14 | B3 | 4 rank
15 | B8 | 3 rank

Molecular target: T1, recombinant mature dimeric myostatin
Assay: cell-based or functional assay
Remark: another data set of the same source

Row | Binder | Mean IC50, A204 in vitro activity assay
16 | B1 | 3.64 nM
17 | B2 | 4.22 nM
18 | B3 | 5.51 nM
19 | B8 | 4.53 nM
20 | B5 | 4.24 nM

Molecular target: T1, recombinant mature dimeric myostatin
Assay: cell-based or functional assay
Remark: another data set of the same source

Row | Binder | Mean IC50, A204 in vitro activity assay
21 | B1 | 11.1 nM
22 | B9 | 4.42 nM

Molecular target: T1, recombinant mature dimeric myostatin
Assay: myostatin capture ELISA: polyclonal anti-myostatin coated, myostatin 1 ug/ml captured, antibody titrated, anti-human kappa-HRP, OPD, A490
Protocol: The eleven affinity purified CDRH3 variants were also analyzed for binding activity in the myostatin capture ELISA.
as §1

Row | Binder | binding result
23 | B10 | binds
24 | B11 | binds
25 | B12 | binds
26 | B13 | binds
27 | B14 | binds

Molecular target: T1, recombinant mature dimeric myostatin
Assay: ActRIIb receptor binding assay: inhibition of biotinylated myostatin binding to coated ActRIIb
Protocol: Recombinant soluble ActRIIb (R&D Systems 339-RBB) was coated in wells of an ELISA plate at 1 μg/ml in carbonate buffer overnight at 4° C. Plates were blocked (see Block solution above at 2.3) and washed following standard ELISA protocols. In parallel, 2 nM biotinylated myostatin (in-house, as described in 1.1, biotinylated material) was pre-incubated with an antibody dilution series consisting of 10B3, 10B3C, and a negative control (IgG1 isotype control) for 2 hours at 37° C. The biotinylated myostatin:antibody reactions were then added to the ActRIIb coated plate for 1 hour at 37° C. Standard wash procedures were followed prior to addition of 1:1000 diluted streptavidin-HRP conjugate (Dako P0397) and a further 37° C. incubation for 1 hour. Plates were again washed and assayed at absorbance 490 nm following OPD substrate (Sigma) and acid stop solution treatment. Inhibition curves and IC50 values for the inhibition of myostatin activity are shown in FIG. 5 and Table 8 respectively.

Row | Binder | IC50
28 | B9 | 0.786 nM
29 | B15 | 0.518 nM

Molecular target: T1, recombinant mature dimeric myostatin
Assay: myostatin competition ELISA, direct capture of myostatin, competitor 10B3
Protocol: as §1
as §2, with “with 0.2” for “with 5”, “of” for “of streptavidin. Biotinylated”, “myostatin (recombinant in-house, see 1.1 above).” for “myostatin was added at 0.3 μg/ml block buffer during 1 hour followed by 3-times in wash buffer.”, “of 0.3” for “of 0.2”

Row | Binder | rank among the five most potent, top (1) to bottom (5)
30 | B1 | 2 rank
31 | B2 | 4 rank
32 | B3 | 3 rank
33 | B8 | 5 rank
34 | B5 | 1 rank
